System: Renilla luciferase RNA
Assay: Barcoded aptazyme variant library screen: un-cleaved Renilla luciferase RNA by barcode read counts, HEK293-T cells
Assay type: cell-based
Details: un-cleaved Renilla luciferase RNA, HEK293-T cells cultured with 1 mM theophylline (ON) over without theophylline (OFF); barcode read counts, triplicate
Method in brief: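 Aptazyme variants (seven theophylline aptamers inserted after each T3H48 ribozyme nucleotide, 9-nt barcoded) cloned into the 3′ UTR of Renilla luciferase in psiCHECK-2; cells cultured ± theophylline, in triplicate. RNA and DNA barcodes amplified and sequenced; normalized read counts gave un-cleaved RNA fraction and ON/OFF fold-change.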

| Molecule | Fold change in RNA expression between the ON state and the OFF state [fold] |
| --- | --- |
| RA092 (nucleic acid, expressed or natural sequence) DNA: GCGCGTCCTGGATTCGCGGAAACGCGTACATCCAGCTGACGAGTCCCAAATAGGACCGGAATACCAGCATCGTCTTGATGCCCTTGGAAGTCCGGCGAAACGCGC | 1.6 |
| RA090 (nucleic acid, expressed or natural sequence) DNA: GCGCGTCCTGGAAGTGATACCAGCATCGTCTTGATGCCCTTGGCAGCACTTTCGCGGAAACGCGTACATCCAGCTGACGAGTCCCAAATAGGACGAAACGCGC | 1.7 |
| RA091 (nucleic acid, expressed or natural sequence) DNA: GGAATACCAGCATCGTCTTGATGCCCTTGGAAGTCCGCGCGTCCTGGATTCGCGGAAACGCGTACATCCAGCTGACGAGTCCCAAATAGGACGAAACGCGC | 1.6 |
| RA009 (nucleic acid, expressed or natural sequence) DNA: GCGCGTCCTGGATTCGCGGAAACGCGTACATCCAGCTGACGAGTCCCAAATAGGACGACCGGAATACCAGCATCGTCTTGATGCCCTTGGAAGTCCGGAACGCGC | 3.8 |
| RA097 (nucleic acid, expressed or natural sequence) DNA: GCGCGTCCTGGATTCGCGGAAACGCGTACATCCAGCTGACGAGTCCCAGAATACCAGCATCGTCTTGATGCCCTTGGAAGTCTAAATAGGACGAAACGCGC | 1.6 |
| RA088 (nucleic acid, expressed or natural sequence) DNA: GCGCGTCCTGGATTCGCGGAAACGCGTACATCCCGAGAATACCAGCATCGTCTTGATGCCCTTGGAAGTCTCGAGCTGACGAGTCCCAAATAGGACGAAACGCGC | 1.7 |
| RA098 (nucleic acid, expressed or natural sequence) DNA: GCGCGTCCTGGATTCGCGGAAACGCGTACATCCCCGGAATACCAGCATCGTCTTGATGCCCTTGGAAGTCCGGAGCTGACGAGTCCCAAATAGGACGAAACGCGC | 1.6 |
| RA095 (nucleic acid, expressed or natural sequence) DNA: GCGCGTCAGAATACCAGCATCGTCTTGATGCCCTTGGAAGTCTCTGGATTCGCGGAAACGCGTACATCCAGCTGACGAGTCCCAAATAGGACGAAACGCGC | 1.6 |
| RA102 (nucleic acid, expressed or natural sequence) DNA: GCGCGTCGGAATACCAGCATCGTCTTGATGCCCTTGGAAGTCCCTGGATTCGCGGAAACGCGTACATCCAGCTGACGAGTCCCAAATAGGACGAAACGCGC | 1.6 |
| RA099 (nucleic acid, expressed or natural sequence) DNA: GCGCGTCCTGGATTCGCGGAAACGCGTACATAGTGATACCAGCATCGTCTTGATGCCCTTGGCAGCACTCCAGCTGACGAGTCCCAAATAGGACGAAACGCGC | 1.6 |
| RA103 (nucleic acid, expressed or natural sequence) DNA: GCGCGTCCTGGATTCGCGGAAACGCGTACATCCAGCTGACGGAATACCAGCATCGTCTTGATGCCCTTGGAAGTCCGAGTCCCAAATAGGACGAAACGCGC | 1.6 |
| RA100 (nucleic acid, expressed or natural sequence) DNA: GCGCGTCCTGGATTCGCGGAAACGCGTACATCCAGCTGACCGGAATACCAGCATCGTCTTGATGCCCTTGGAAGTCCGGAGTCCCAAATAGGACGAAACGCGC | 1.6 |
| RA105 (nucleic acid, expressed or natural sequence) DNA: GCGCGTCCTGGAGAATACCAGCATCGTCTTGATGCCCTTGGAAGTCTCGATTCGCGGAAACGCGTACATCCAGCTGACGAGTCCCAAATAGGACGAAACGCGC | 1.6 |
| RA104 (nucleic acid, expressed or natural sequence) DNA: GCGCGTCCTGGATTCGCGGAAACGCGTACATCCAGCTGACGAGTCCCAAATCGAGAATACCAGCATCGTCTTGATGCCCTTGGAAGTCTCGAGGACGAAACGCGC | 1.6 |
| RA089 (nucleic acid, expressed or natural sequence) DNA: GCGCGTCCTGGATTCGCGGAAACGCGTACATCCAGCTGACGAGTCCCAAATAGGACCGGAATACCAGCATCGTCTTGATGCCCTTGGAAGTCCGGAAACGCGC | 1.7 |
| RA087 (nucleic acid, expressed or natural sequence) DNA: GCGCGTCCTGGATTCGCGGAAACGCGTACATCCAGCTGACGAGCGAGAATACCAGCATCGTCTTGATGCCCTTGGAAGTCTCGTCCCAAATAGGACGAAACGCGC | 1.7 |
| RA101 (nucleic acid, expressed or natural sequence) DNA: GCGCGTCCTGGATTCGCGGAAACGCGTACATCCAGCTGACGAGTCCCAAATAGGACGAACGGAATACCAGCATCGTCTTGATGCCCTTGGAAGTCCGACGCGC | 1.6 |
| RA094 (nucleic acid, expressed or natural sequence) DNA: GCGCGTCCTGGATTCGCGGAGGAATACCAGCATCGTCTTGATGCCCTTGGAAGTCCAACGCGTACATCCAGCTGACGAGTCCCAAATAGGACGAAACGCGC | 1.6 |
| RA008 (nucleic acid, expressed or natural sequence) DNA: GCGCGTCCTGGATTCGCGGAAACGGAATACCAGCATCGTCTTGATGCCCTTGGAAGTCCGCGCGTACATCCAGCTGACGAGTCCCAAATAGGACGAAACGCGC | 4.2 |
| RA096 (nucleic acid, expressed or natural sequence) DNA: GCGCGTCAGTGATACCAGCATCGTCTTGATGCCCTTGGCAGCACTCTGGATTCGCGGAAACGCGTACATCCAGCTGACGAGTCCCAAATAGGACGAAACGCGC | 1.6 |
| RA093 (nucleic acid, expressed or natural sequence) DNA: AGTGATACCAGCATCGTCTTGATGCCCTTGGCAGCACTGCGCGTCCTGGATTCGCGGAAACGCGTACATCCAGCTGACGAGTCCCAAATAGGACGAAACGCGC | 1.6 |
